Measurements taken from IntAct's records for PubMed 20308558.

B1: Ras-related protein Rab-11A (Homo sapiens), P62491 (parent)
chain: MGTRDDEYDYLFKVVLIGDSGVGKSNLLSRFTRNEFNLESKSTIGVEFATRSIQVDGKTIKAQIWDTAGQERYRAITSAYYRGAVGALLVYDIAKHLTYENVERWLKELRDHADSNIVIMLVGNKSDLRHLRAVPTDEARAFAEKNGLSFIETSALDSTNVEAAFQTILTEIYRIVSQKQMSDRRENDMSPSNNVVPIHVPPTTENKPKVQCCQNI
partner: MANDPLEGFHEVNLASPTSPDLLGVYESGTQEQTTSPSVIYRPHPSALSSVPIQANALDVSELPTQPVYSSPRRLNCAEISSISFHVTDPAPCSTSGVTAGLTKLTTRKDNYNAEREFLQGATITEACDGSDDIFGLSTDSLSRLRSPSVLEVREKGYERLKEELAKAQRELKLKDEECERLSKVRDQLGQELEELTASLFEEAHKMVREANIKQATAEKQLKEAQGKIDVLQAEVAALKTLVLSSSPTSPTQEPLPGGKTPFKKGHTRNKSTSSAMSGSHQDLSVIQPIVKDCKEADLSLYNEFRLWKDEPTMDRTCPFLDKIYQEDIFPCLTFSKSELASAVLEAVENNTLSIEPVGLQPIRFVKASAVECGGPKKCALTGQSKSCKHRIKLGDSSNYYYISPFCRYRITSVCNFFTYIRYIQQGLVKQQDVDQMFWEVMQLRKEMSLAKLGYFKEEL

Variants of: B1
Conditions: with RAB3IP

Row | Variant | effect of a mutation on the interaction
1 | Q70L | increasing interaction
2 | S25N | decreasing interaction
